Measurements taken from patent publication US20240400718A1.
Changes are numbered by the printed parent chain.

B1: 3E7-C1 (antibody, V domains shown)
VH: QVQMKESGPGLVQPSETLSLTCTVSGFSLTSYGVSWVRQPSGKGPEWMGRLWNDGDTAYNSALKSRLSISRDTSKNQVFLKMNSLQTDDTGTYYCTTMNGYKDYWGQGVMVTVSS
VL: TSYELIQPPSASVTLGNTVSLTCVGDELPKRYAYWYQQKPDQSIVRVIYEDSKRPSGISDRFSGSSSGTTATLTIRDAQAEDEADYYCHSTYSDDKLRIFGGGTKLTVLG
B2: 4B9-B11 (antibody, V domains shown)
VH: QMQLKESGPGLVQPSETLSLTCTVSGFSLTSYSVSWVRQPSGKGPEWMGRMYYDGDTAYNSALKSRLSISRDTSKNQVFLKMNSLQTDDTGTYYCTRSIGAEDYWGQGVMVTVSS
VL: B1 VL with A80N
B3: 2D12-B12 (antibody, V domains shown)
VH: EVKLVESGGGLVQPGRSLKLSCAASGFNFNDYWMGWVRQAPGKGLEWIGEIKKDSSIINYIPSLKDKFTISRDNAQNTLYLQMSKLGSEDTAIYYCARGVEYYGYHYWGQGTLVTVSS
VL: DIVMTQSPSSLAVSAGETVTINCKSSQSLLYSGNQKNYLAWYQQKPGQSPKLLIYWASTRHSGVPARFIGSGSGSDFTLTISSVQAEDLAIYCCQQYYDIPYTFGAGTKLELK
B4: 3A4-A10-7 (antibody, V domains shown)
VH: QVQLQQSGAALVKPGASVKMSCKASGYTFTDCWVSWVKQSHGKSLEWIGEIHPNSGTTNFNEKFKGKATLTVDKSTSTAYMELSRLTSEDSAIYYCTRAYGGYPFDYWGQGVMVTVSS
VL: ADLVLTQPKSVSTSLESTVKLSCKLNSGNIGRYYMHWYQQHEGRSPTNMIYRDDKRPDGVPDRFSGSIDSSSNSAFLTINNVQTEDEAIYFCHSYDSSINIFGGGTKLTVLG

What was measured:
[1] = biological target: #231: CAR with VL-L1-VH scFv, Human 3rd-generation; experiment: subclone supernatant on HEK293T cells transiently expressing the scFv; % positive cells
Sequence of #231: CAR with VL-L1-VH scFv, Human 3rd-generation (main, as listed by the source): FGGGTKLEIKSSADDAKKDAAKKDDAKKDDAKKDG

[2] = biological target: S#017: CAR with VH-L2-VL scFv, Human 3rd-generation_hIL7_hCCL19_HSVtk; experiment: flow cytometry on CAR-T cells; PE-labeled secondary antibody; PE-positive cells / total cells
[3] = biological target: S#066: VL-L2-VH CAR-T; experiment: as above
Sequence of S#066: VL-L2-VH CAR-T (main, as listed by the source): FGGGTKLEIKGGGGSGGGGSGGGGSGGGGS

[4] = biological target: #628: VH-L2-VL CAR-T; experiment: as above
[5] = biological target: #264: VH-L1-VL CAR-T; experiment: as above
[6] = biological target: #371: VL-L2-VH CAR-T; experiment: as above
Sequence of #371: VL-L2-VH CAR-T (main, as listed by the source): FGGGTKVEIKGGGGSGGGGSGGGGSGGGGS

[7] = biological target: S#074: VL-L2-VH CAR-T; experiment: as above
[8] = biological target: S#050: VH-L1-VL CAR-T; experiment: as above
[9] = biological target: S#075: CAR with VL-L1-VH scFv, Human 2nd-generation (4-1BB)_hIL7_hCCL19_HSVtk; experiment: as above
[10] = biological target: #651: VH-L2-VL CAR-T; experiment: as above
Sequence of #651: VH-L2-VL CAR-T (main, as listed by the source): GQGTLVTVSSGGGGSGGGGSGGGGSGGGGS

[11] = biological target: S#097: VL-L2-VH CAR-T; experiment: as above
[12] = biological target: S#067: CAR with VL-L1-VH scFv, Human 2nd-generation (4-1BB)_hIL7_hCCL19_HSVtk; experiment: as above
[13] = biological target: S#085: VL-L1-VH CAR-T; experiment: as above
[14] = biological target: S#084: VL-L2-VH CAR-T; experiment: as above
[15] = biological target: S#031: CAR with VH-L1-VL scFv, Human 3rd-generation_hIL7_hCCL19_HSVtk; experiment: as above
[16] = biological target: #231: CAR with VL-L1-VH scFv, Human 3rd-generation; experiment: as above
[17] = biological target: S#027: VH-L1-VL CAR-T; experiment: as above
[18] = biological target: S#104: VL-L1-VH CAR-T; experiment: as above
[19] = biological target: S#076: VH-L2-VL CAR-T; experiment: as above

Binder | Positive (%) [1] [%] | Reactivity (%) [2] [%] | Reactivity (%) [3] [%] | Reactivity (%) [4] [%] | Reactivity (%) [5] [%] | Reactivity (%) [6] [%] | Reactivity (%) [7] [%] | Reactivity (%) [8] [%] | Reactivity (%) [9] [%] | Reactivity (%) [10] [%] | Reactivity (%) [11] [%] | Reactivity (%) [12] [%] | Reactivity (%) [13] [%] | Reactivity (%) [14] [%] | Reactivity (%) [15] [%] | Reactivity (%) [16] [%] | Reactivity (%) [17] [%] | Reactivity (%) [18] [%] | Reactivity (%) [19] [%]
B1 | 24.5 | 0 | 0.1 | 0 | 0 | 0 | 0.1 | 0.1 | 25.9 | 0.1 | 0 | 41 | 41.4 | 0 | 2.2 | 69.6 | 0 | 21.5 | 0.1
B2 | 60 | 0 | 0.1 | 0.2 | 0 | 0.1 | 1.4 | 1.1 | 35.7 | 0.2 | 0.1 | 41.5 | 49.6 | 0.1 | 9.7 | 74.6 | 1 | 29.1 | 0.2
B3 |  | 0 | 0.9 | 0.2 | 11.1 | 0.2 | 0.8 | 14.5 | 15 | 0.4 | 0.3 | 34.9 | 0.8 | 0.3 | 64.6 | 67.4 | 28.4 | 13.4 | 0.2
B4 |  | 0 | 0.2 | 0.1 | 36.7 | 0.2 | 0.2 | 18.5 | 12.3 | 0.2 | 0.1 | 22.3 | 2.2 | 0.1 | 45.3 | 23.9 | 45.7 | 5.2 | 0.2
